Residue numbers refer to the chain shown, from its start.
T1: human tenascin-C rCd4-His-FBG (rat; human, UniProt P05540 207-392, limits assumed)
T1 construct: domain: domains 3 and 4; C-terminal FBG fusion; biotinylated in the ELISA and HTRF screens; also called Hu TNC; human TNC rCd4-His-FBG; not shown: 6His tag
T1 sequence (chain (part 1 of 2)): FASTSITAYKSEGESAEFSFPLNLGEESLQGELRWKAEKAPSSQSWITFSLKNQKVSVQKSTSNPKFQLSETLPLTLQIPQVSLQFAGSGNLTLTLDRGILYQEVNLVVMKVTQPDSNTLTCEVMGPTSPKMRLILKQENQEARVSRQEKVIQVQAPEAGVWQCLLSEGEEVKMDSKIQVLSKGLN
T1 sequence (chain (part 2 of 2)): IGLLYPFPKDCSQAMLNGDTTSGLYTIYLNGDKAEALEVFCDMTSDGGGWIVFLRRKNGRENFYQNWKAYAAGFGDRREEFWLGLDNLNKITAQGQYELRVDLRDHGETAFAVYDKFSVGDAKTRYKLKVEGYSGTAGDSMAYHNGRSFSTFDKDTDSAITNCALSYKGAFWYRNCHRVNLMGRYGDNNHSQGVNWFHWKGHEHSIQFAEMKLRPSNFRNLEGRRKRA

T2: mouse tenascin-C rCd4-His-FBG (rat; mouse, UniProt P05540 207-392, limits assumed)
T2 construct: domain: domains 3 and 4; C-terminal FBG fusion; biotinylated in the ELISA screen; also called Mu TNC; mouse TNC rCd4-His-FBG; not shown: 6His tag
T2 sequence (chain (part 1 of 2)): T1 sequence (chain (part 1 of 2))
T2 sequence (chain (part 2 of 2)): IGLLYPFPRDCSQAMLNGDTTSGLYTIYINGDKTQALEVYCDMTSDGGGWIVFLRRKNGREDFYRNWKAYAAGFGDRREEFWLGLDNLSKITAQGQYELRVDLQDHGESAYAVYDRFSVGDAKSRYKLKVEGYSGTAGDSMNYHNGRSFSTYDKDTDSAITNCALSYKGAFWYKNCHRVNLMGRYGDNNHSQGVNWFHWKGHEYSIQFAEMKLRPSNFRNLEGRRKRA

B1: 165_13_D1 scFv (scFv, V domains shown, not shown: small tags and cut ends)
VH: QVQLVESGGGLVQPGRSLRLSCAASGFTFDDYAMHWVRQAPGKGLEWVSGISGSGGSTYYADSVKGRFTISRDNAKNSLYLQMNSLRAEDTALYYCAKGTRGEGDTFDIWGQGTMVTVSS
VL: DIQMTQSPASLPTPVGDRVTITCRASQYIQGFLNWYQQKPGKAPKLLIYDASNLETGVPSRFSGSGSGTDFTLTISSLQPEDFATYYCQQSYSTPQTFGQGTKVDIK
notes: E. coli supernatant scFv
B2: 165_13_B1 scFv (scFv, V domains shown, not shown: small tags and cut ends)
VH: B1 VH with G99V, T100M, R101S, G102S, E103M, G104E, T106A
VL: B1 VL
notes: E. coli supernatant scFv
B3: 165_13_B6 scFv (scFv, V domains shown, not shown: small tags and cut ends)
VH: B1 VH with T100Q, R101K
VL: B1 VL
notes: E. coli supernatant scFv
B4: 162_02_F3 scFv (scFv, V domains shown, not shown: small tags and cut ends)
VH: EVRLVQSGAEVKKPGASVKVSCKVSGYTLTELSMHWVRQAPGKGLEWMGGFDPEDGETIYAQKFQGRVTMTEDTSTDTAYMELSSLRSEDTAVYYCATAQKETYALTYWGQGTLVTVSS
VL: DIQMTQSPASLPTSVGDRVTITCRASQYIQGFLNWYQQKPGKAPRLLIYAASTLQDGVPSRFSGSGYGTDFTLTISSLQPEDFATYYCQNQYRGPWTFGQGTKVEIK
notes: E. coli supernatant scFv
B5: 162_02_F4 scFv (scFv, V domains shown, not shown: small tags and cut ends)
VH: B4 VH
VL: B4 VL with Q89M, N90H, Q91H, G94S
notes: E. coli supernatant scFv
B6: 163_02_D11 scFv (scFv, V domains shown)
VH: B4 VH
VL: B4 VL with Q89L, N90H, Q91H, R93K, G94S
notes: E. coli supernatant scFv; not shown: scFv linker, domain order and the pSANG10 tags (FLAG/His)
B7: 161_01_H10 scFv (scFv, V domains shown, not shown: small tags and cut ends)
VH: B4 VH with K101P, E102V, T103W, Y104A, A105P, L106G
VL: B4 VL with N90Q, Q91S, R93S, G94T
notes: E. coli supernatant scFv
B8: 162_02_C2 scFv (scFv, V domains shown, not shown: small tags and cut ends)
VH: B4 VH
VL: B4 VL with Q89M, N90H, Q91H, G94A
notes: E. coli supernatant scFv
B9: 161_01_A12 scFv (scFv, V domains shown, not shown: small tags and cut ends)
VH: B4 VH with K101P, E102T, T103A, Y104L, L106N
VL: B4 VL with N90Q, Q91S, R93S, G94T
notes: E. coli supernatant scFv
B10: 160_01_G2 scFv (scFv, V domains shown, not shown: small tags and cut ends)
VH: B4 VH with A99Y, Q100T, K101L, E102D, T103N, Y104M
VL: B4 VL with N90Q, Q91S, R93S, G94T
notes: E. coli supernatant scFv
B11: 161_01_C11 scFv (scFv, V domains shown, not shown: small tags and cut ends)
VH: B4 VH with T103W, Y104L, A105P, L106D, T107V, Y108T
VL: B4 VL with N90Q, Q91S, R93S, G94T
notes: E. coli supernatant scFv
B12: 160_01_H4 scFv (scFv, V domains shown, not shown: small tags and cut ends)
VH: B4 VH with A99G, Q100R, K101F, E102V, T103W, Y104E
VL: B4 VL with N90Q, Q91S, R93S, G94T
notes: E. coli supernatant scFv
B13: 161_01_F6 scFv (scFv, V domains shown, not shown: small tags and cut ends)
VH: B4 VH with T103N, Y104I, L106N, T107R, Y108H
VL: B4 VL with N90Q, Q91S, R93S, G94T
notes: E. coli supernatant scFv; also called 160_01_F6
B14: 162_02_C1 scFv (scFv, V domains shown, not shown: small tags and cut ends)
VH: B4 VH
VL: B4 VL with Q89L, N90H, Q91H, G94A
notes: E. coli supernatant scFv
B15: 160_01_A4 scFv (scFv, V domains shown, not shown: small tags and cut ends)
VH: B4 VH with Y104L, A105G, L106N, T107A, Y108I
VL: B4 VL with N90Q, Q91S, R93S, G94T
notes: E. coli supernatant scFv
B16: 162_02_H5 scFv (scFv, V domains shown, not shown: small tags and cut ends)
VH: B4 VH
VL: B4 VL with R93T
notes: E. coli supernatant scFv
B17: 161_01_C09 scFv (scFv, V domains shown, not shown: small tags and cut ends)
VH: B4 VH with K101L, E102P, T103Y, Y104L, L106Q
VL: B4 VL with N90Q, Q91S, R93S, G94T
notes: E. coli supernatant scFv
B18: 160_01_F1 scFv (scFv, V domains shown, not shown: small tags and cut ends)
VH: B4 VH with K101S, E102P, T103W, Y104S, A105G, L106M
VL: B4 VL with N90Q, Q91S, R93S, G94T
notes: E. coli supernatant scFv
B19: 162_02_C6 scFv (scFv, V domains shown, not shown: small tags and cut ends)
VH: B4 VH
VL: B4 VL with R93A
notes: E. coli supernatant scFv
B20: 163_02_A12 scFv (scFv, V domains shown)
VH: B4 VH
VL: B4 VL with Q89L, N90H, Q91H, G94E
notes: as for B6
B21: 162_02_D3 scFv (scFv, V domains shown, not shown: small tags and cut ends)
VH: B4 VH with K101I, E102H, T103P, Y104L, A105G
VL: B4 VL with N90Q, Q91S, R93S, G94T
notes: E. coli supernatant scFv

target: T1, human tenascin-C rCd4-His-FBG; test: HTRF competition; competitor d2-labelled B12 IgG
Procedure: All samples and reagents were prepared in assay buffer (50 mM NaPO₄, 0.1% BSA, 0.4 M KF, pH 7.0) at 4× the stated concentration. 5 μl of each reagent was subsequently added to low volume 384-well assay plates (Greiner, 784075) to give a final reaction volume of 20 μl. IgG antibodies were labelled using the d2 labelling kit (CisBio, 62D2DPEA) as directed by the manufacturer. Streptavidin europium cryptate (CisBio, 610SAKLA, Lot#25C) was used at a final concentration of 1.8 ng active moiety (SA) per 20 μl reaction as recommended by the manufacturer. Biotinylated rCd4-His-FBG was prepared using EZ-link Sulfo-NHS-LC-Biotin reagent (Thermo Scientific, 21327) the extent of biotinylation was quantified using biotinylation fluorescence quantitation kit (Thermo Scientific, 46610). Where appropriate, supernatants containing scFv (prepared as described above for ELISA assays) were added to the 384-well assay plate at a final dilution of 1/20 (i.e. 1/5 dilution in assay buffer followed by addition of 5 μl diluted sample to the 20 μl FRET assay). […] Samples were incubated for approximately 1 h at room temperature and the FRET signal was determined using a BMG Pherastar instrument: excitation=320 nm; emission=620 nm and 665 nm; integration start time=60 μs; integration time=500 μs; 100 flashes per well. For competition assays containing culture supernatant, biotinylated rCd4-His-FBG antigen was pre-incubated with streptavidin europium cryptate for 45 min prior to addition of reagents to the assay plate. All FRET signals are presented as ΔR, where R=(E665/E620×104) and ΔR=(Rsample−Rbackground fluorescence).

% inhibition of HTRF signal [%] | % inhibition of FRET signal [%] | Binder
≥ 91 | – | B1
≥ 91 | – | B2
≥ 91 | – | B3
– | ≥ 83 | B4
– | ≥ 83 | B5
– | ≥ 83 | B6
– | ≥ 90 | B7
– | ≥ 83 | B8
– | ≥ 90 | B9
– | ≥ 90 | B10
– | ≥ 90 | B11
– | ≥ 90 | B12
– | ≥ 90 | B13
– | ≥ 83 | B14
– | ≥ 90 | B15
– | ≥ 83 | B16
– | ≥ 90 | B17
– | ≥ 90 | B18
– | ≥ 83 | B19
– | ≥ 83 | B20
– | ≥ 90 | B21

target: T2, mouse tenascin-C rCd4-His-FBG; test: anti-FLAG capture ELISA, scFv supernatant

fold improvement in binding over parent [fold] | Binder
≥ 4 | B1
≥ 4 | B2
≥ 4 | B3
≥ 10 | B4
≥ 10 | B5
≥ 10 | B6
≥ 10 | B7
≥ 10 | B8
≥ 10 | B9
≥ 10 | B10
≥ 10 | B11
≥ 10 | B12
≥ 10 | B13
≥ 10 | B14
≥ 10 | B15
≥ 10 | B16
≥ 10 | B17
≥ 10 | B18
≥ 10 | B19
≥ 10 | B20
≥ 10 | B21
